Laboratory results: patent publication US8598312B2, “Inhibitors of antigen presentation by MHC class II molecules” (Provid Pharmaceuticals, Inc., priority 2003, dated 2013)
Where a SMILES comes first, the peptide text is derived from it. Where no end group is shown, it is not given here. [ ]: non-standard residue; d: D form. Ala(indol-4-yl) = N[C@@H](Cc1cccc2[nH]ccc12)C(=O)O; Gly(cPent) = N[C@H](C(=O)O)C1CCCC1; Tic = O=C(O)[C@@H]1Cc2ccccc2CN1; Chg = N[C@H](C(=O)O)C1CCCCC1; Pip = O=C(O)[C@@H]1CCCCN1; Idg = not defined here

What was measured:
[1] = target: MHC class II HLA-DR2 (DRA*0101/DRB1*1501) (human); experiment: competition binding assay, purified HLA-DR, biotinylated reference peptide SEQ ID NO 107 as competitor, L243 capture
DRB1*1501 molecules = DRB1*1501 molecules (Homo sapiens, UniProt P01903+P01911); conditions: DR2 haplotype; cited from earlier work
DRB5*0101 molecules = DRB5*0101 molecules (Homo sapiens, UniProt P01903+Q30154); conditions: DR2 haplotype; cited from earlier work
T cell proliferation = conditions: cited from earlier work
[2] = in vivo; cited from earlier work
DR13 (HLA-DR molecules) = experiment: HLA II binding assay, DR13; set-up: species or system human; conditions: read-out: Inhibition of peptide binding IC50 DR13
DR2a = target: T1, DR2a (human, UniProt P01903 26-216, limits assumed); experiment: competition binding assay, purified HLA-DR, biotinylated reference peptide (not named), L243 capture
T1 construct: mature

[3] = target: T2, MHC class II HLA-DR2 (DRA*0101/DRB1*1501) (human, UniProt P01903 26-254; P01911 30-266, limits assumed); experiment: competition binding assay, purified HLA-DR, biotinylated reference peptide SEQ ID NO 107 as competitor, L243 capture
T2 construct: mature; Detergent-solubilised native molecule purified from cells; also called DR2b

Molecule	IC50 (DR2a)	IC50 [3]	also measured
Ac(Cpg)R(Tic)F(hPro) (peptide)			IC50 [1]: 0.075 µM
MBP (84-102): immunodominant myelin basic protein (84-102) peptide (DPGSRPHLIRLFSRDAPGR; Myelin basic protein; UniProt P02686 84-102, looked up, fragment)			binding affinity to DRB1*1501 molecules (DRB1*1501 molecules): high affinity; binding affinity to DRB5*0101 molecules (DRB5*0101 molecules): high affinity
a(Cha)AAAKTAAAAa-NH2			suppression of T cell proliferation in response to protein antigens (T cell proliferation): did not supress T cell proliferation; activity in animal models of autoimmune disease [2]: did not show activity
CC(=O)N[C@H](C(=O)N[C@@H](CCCNC(=N)N)C(=O)N1Cc2ccccc2C[C@H]1C(=O)N[C@@H](Cc1ccccc1)C(=O)N1CCCC[C@H]1C(N)=O)C1CCCC1 [Ac(Cpg)R(Tic)F(hPro), Ac(Cpg)R(Tic)F(homo Pro)] (Ac-[Gly(cPent)]R[Tic]F[Pip]-NH2; N-terminus and C-terminus assumed)			IC50 (DR13 (HLA-DR molecules)): > 100 µM
Ac-[Chg]RF[Ala(indol-4-yl)]KNI (not fully specified; printed as Ac(Chg)RF(4′-IndolylAla)KNI, also called Entry 79) [Ac(Chg)RF(4′-IndolylAla)KNI]	3.58 µM	0.006 µM	

Further lines, with some results ahead:

IC50 (DR2a)	IC50 [3]	Molecule	also measured
0.017 µM	0.09 µM	Ac-[Idg]RFFKNI (not fully specified; printed as Ac(Idg)RFFKNI; reading uncertain, also called Entry 64) [Ac(Idg)RFFKNI]	
	0.45 µM	Ac-VHFFKNI (also called Entry 2) [AcVHFFKNI]	
0.63 µM	0.025 µM	Ac-[Gly(cPent)]RFFKNI (not fully specified; printed as Ac(Cpg)RFFKNI, also called Entry 25) [Ac(Cpg)RFFKNI]	
0.685 µM	0.003 µM	Ac-V[Chg]RFFK (not fully specified; printed as AcV(Chg)RFFK, also called Entry 85) [AcV(Chg)RFFK]	
